According to US20200247901A1 (US Dept. of Health and Human Services, published 2020):
Changes are numbered by the printed parent chain.

B1: 15B6 anti-mesothelin antibody (IgG2b) (antibody, V domains shown)
VH: EVQLQQSGPVLVKPGASVKISCKASGYSFTGYYMHWVRQSLVKRLEWIGRINPYTGVPSYKHNFKDKASLTVDKSSSTAYMELHSLTSEDSAVYYCARELGGYWGQGTTLTVSS
VL: QAVVTQESALTTSPGETVTLTCRSSTGAVTTGNYPNWVQEKPDHLFTGLIAGTNNRAPGVPARFSGSLIGDKAALTITGAQTEDEAIYFCALWFSSHWVFGGGTKLTVL
notes: Mouse hybridoma monoclonal antibody, IgG 2b; also called Mab 15B6; antibody 15B6
B2: 2B4 anti-mesothelin antibody (IgG2a) (antibody, V domains shown)
VH: EVQLQQSGPELVKPGASVKISCKASGYPFTGHYMHWVKQGHVKSLEWIGRINPYTGAINYNQNFKDKASLSVEKSSSTAYMGLHSLTSEDSAVYYCVRDLGGGYWGQGTTLTVSS
VL: B1 VL with G32S, P35A, T82P, Y88F, F94Y
notes: Mouse hybridoma monoclonal antibody, IgG 2a; also called antibody 2B4
B3: 7B5 anti-mesothelin antibody (IgG1) (antibody, V domains shown)
VH: B2 VH with A16T, S71T
VL: B1 VL with G32S, P35A, T82P, I87M, Y88F, S95G
notes: Mouse hybridoma monoclonal antibody, IgG 1; also called antibody 7B5
B4: peptide 1 (CLVLDLSMQEALS) (peptide)
peptide: CLVLDLSMQEALS
notes: Mesothelin 587-598 with an added N-terminal cysteine
B5: peptide 2 (CSMQEALS) (peptide)
peptide: CSMQEALS
notes: Mesothelin 592-598 with an added N-terminal cysteine

Assays:
[1] = biological target: T1, mesothelin (296-585) attached to mouse transferrin receptor (TFR) transmembrane domain, on AB1-L9 cells (human; mouse, UniProt Q13421 296-585); assay: binding to transfected AB1-L9 cells
T1 construct: The order of the parts is as printed; also called AB1-L9 cell line

Fc-mesothelin 296-599 = biological target: T2, Fc-mesothelin 296-599 (human, UniProt Q13421 296-599); assay: ELISA on Fc-mesothelin 296-599
T2 construct: The order of the parts follows the printed name and is not otherwise stated; not shown: Fc part

[2] = biological target: B2; assay: competition ELISA, antibody 30 ng/ml on coated MSLN-Fc, peptide titrated
Description: (§1) A competition assay was completed using the following peptides: peptide 1 having the sequence CLVLDLSMQEALS (SEQ ID NO: 61) and peptide 2 having the sequence CSMQEALS (SEQ ID NO: 62). An ELISA plate was coated with MSLN(M)-Fc or MSLN(V)-Fc. After overnight incubation, the plates were blocked and washed. The anti-mesothelin stalk antibodies of Example 1 (30 ng/ml) and peptide 1 or peptide 2 were added at different concentrations (100 micrograms/ml to 0.00001 micrograms/ml). After washing, anti-mouse IgG-HRP conjugate were added. The OD was then measured with ELISA.

[3] = biological target: B1; assay: as above
Description: as §1

[4] = biological target: B3; assay: as above
Description: as §1

T1 sequence (Q13421 other isoform, or with tags, fused parts or gaps): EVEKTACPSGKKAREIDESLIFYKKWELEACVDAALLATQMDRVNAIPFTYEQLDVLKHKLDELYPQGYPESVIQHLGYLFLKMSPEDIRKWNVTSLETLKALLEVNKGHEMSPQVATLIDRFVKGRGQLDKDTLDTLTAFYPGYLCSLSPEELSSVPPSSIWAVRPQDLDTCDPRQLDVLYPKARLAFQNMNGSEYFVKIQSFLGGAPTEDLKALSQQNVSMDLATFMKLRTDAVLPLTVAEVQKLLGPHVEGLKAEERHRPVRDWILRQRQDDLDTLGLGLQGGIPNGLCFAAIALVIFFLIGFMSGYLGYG
T2 sequence (Q13421 other isoform, or with tags, fused parts or gaps): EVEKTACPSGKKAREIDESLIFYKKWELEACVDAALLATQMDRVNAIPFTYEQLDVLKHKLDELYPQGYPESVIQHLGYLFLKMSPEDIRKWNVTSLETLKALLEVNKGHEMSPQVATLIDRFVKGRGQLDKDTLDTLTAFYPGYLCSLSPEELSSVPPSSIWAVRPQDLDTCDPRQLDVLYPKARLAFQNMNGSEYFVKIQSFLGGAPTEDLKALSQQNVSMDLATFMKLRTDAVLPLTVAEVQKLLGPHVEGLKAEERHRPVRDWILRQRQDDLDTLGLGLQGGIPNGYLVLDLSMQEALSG

Binder | binding result [1] | binding result (Fc-mesothelin 296-599) | binding result [2] | binding result [3] | binding result [4]
B1 | no binding | binds |  |  | 
B2 | no binding | binds |  |  | 
B3 | no binding | binds |  |  | 
B4 |  |  | binds | binds | binds
B5 |  |  | no binding | no binding | no binding
